The values that follow come from patent US7208574 (UNIVERSITY OF BRITISH COLUMBIA, dated 2007).

For this assay, the target named is T1, β1 integrins (UniProt P05556 21-798).
T1 construct: Endogenous protein of the epithelial membrane extract; also called beta 1 integrins
Kind of assay: gel overlay with HeLa membrane extract.

T1 sequence (P05556 21-798): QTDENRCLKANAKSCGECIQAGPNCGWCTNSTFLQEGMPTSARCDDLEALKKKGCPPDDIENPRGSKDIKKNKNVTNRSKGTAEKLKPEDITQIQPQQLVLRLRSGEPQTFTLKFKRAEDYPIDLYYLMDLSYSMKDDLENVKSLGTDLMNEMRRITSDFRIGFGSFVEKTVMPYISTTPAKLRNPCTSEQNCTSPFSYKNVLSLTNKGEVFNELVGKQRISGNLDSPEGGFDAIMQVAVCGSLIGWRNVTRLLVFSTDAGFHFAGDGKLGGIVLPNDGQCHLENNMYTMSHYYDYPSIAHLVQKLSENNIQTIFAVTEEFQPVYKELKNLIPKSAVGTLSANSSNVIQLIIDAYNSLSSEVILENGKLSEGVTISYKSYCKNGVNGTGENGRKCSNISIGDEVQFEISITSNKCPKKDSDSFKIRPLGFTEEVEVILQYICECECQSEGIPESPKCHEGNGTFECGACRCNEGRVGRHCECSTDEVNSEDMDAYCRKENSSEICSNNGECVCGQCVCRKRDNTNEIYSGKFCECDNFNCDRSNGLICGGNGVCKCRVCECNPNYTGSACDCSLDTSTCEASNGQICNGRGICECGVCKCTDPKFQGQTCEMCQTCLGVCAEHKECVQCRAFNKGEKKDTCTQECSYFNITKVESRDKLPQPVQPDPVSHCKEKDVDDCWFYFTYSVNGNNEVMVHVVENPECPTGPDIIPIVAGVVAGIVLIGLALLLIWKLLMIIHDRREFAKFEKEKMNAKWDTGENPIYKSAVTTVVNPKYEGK

B1: His-T7Int fusion protein (other)
chain: ITEIKADKTTAVANGQDAITYTVKVMKGDKPVSNQEVTFTTTLGKLSNSTEKTDTNGYAKVTLTSTTPGKSLVSARVSDVAVDVKAPEVEFFTTLTIDDGNIEIVGTGVKGKLPTVWLQYGQVNLKASGGNGKYTWRSANPAIASVDASSGQVTLKEKGTTTISVISSDNQTATYTIATPNSLIVPNMSKRVTYNDAVNTCKNFGGKLPSSQNELENVFKAWGAANKYEYYKSSQTIISWVQQTAQDAKSGVASTYDLVKQNPLNNIKASESNAYATCVK
notes: domain: 280 C-terminal residues of intimin; Purified on an agarose-nickel column; also called His-T7Intimin; His-T7Int peptide
For B1, the binding result is on record as “no binding”.
